What was measured:
[1] = test system: T1, C[n+]1ccc(-c2cc[n+](C)cc2)cc1; experiment: H2 evolution assay, gas chromatography; type: biochemical, Volvox carteri; conditions: electron donor, methyl viologen reduced in situ by sodium dithionite; anaerobic
T1 construct: cDNA-derived, N-terminal 6xHis tag with GGG linker; sense cloning primer encodes tag then MDELDKP; tag removal not mentioned

[2] = test system: T2, C[n+]1ccc(-c2cc[n+](C)cc2)cc1; experiment: H2 evolution assay, gas chromatography; type: biochemical, Volvox carteri; conditions: electron donor, methyl viologen reduced in situ by sodium dithionite; anaerobic
T2 construct: cDNA-derived, N-terminal 6xHis tag with GGG linker; sense cloning primer encodes tag then KCTSAV (no start Met, N-terminus probably truncated); maturation possibly incomplete

Substance	Km [1] [µM]	Km [2] [µM]
HYDA1 (Volvox carteri f. nagariensis)	2760	–
HYDA2 (Volvox carteri f. nagariensis)	–	2820
